{
  "source": "patent US20150219657A1",
  "binders": {"B1": {"name": "bi-L (designed binder)", "peptide 1": "[dW][dK][dV][dK][dL]-NH2", "peptide 2": "[dH][dN]G[dY][dF][dPra]", "modifications": "also: arms joined via S3 linker (azide, PEG2-biotin) coupled to the wkvkl N-terminus, biotin-PEG2 label, triazole to a chain's N/C-terminus via S3 linker"}, "B2": {"name": "N-tL (designed binder)", "peptide 1": "[dW][dK][dV][dK][dL]", "peptide 2": "[dH][dN]G[dY][dF]", "peptide 3": "Ac-[dPra][dY][dY][dR][dF]G-NH2", "modifications": "triazole (positions not given here); not fully specified (N-terminus, bridges); also: C-terminal D-Pra clicked via triazole to L-azidolysine of S4, arm not given here, N-terminus coupled to S4 (azidolysine-PEG2-biotin)"}},
  "key": {"[1]": {"target": "Active Akt2 (with N terminal His6 tag) (human) (UniProt P31751)", "sequence (P31751 other isoform, or with tags, fused parts or gaps)": "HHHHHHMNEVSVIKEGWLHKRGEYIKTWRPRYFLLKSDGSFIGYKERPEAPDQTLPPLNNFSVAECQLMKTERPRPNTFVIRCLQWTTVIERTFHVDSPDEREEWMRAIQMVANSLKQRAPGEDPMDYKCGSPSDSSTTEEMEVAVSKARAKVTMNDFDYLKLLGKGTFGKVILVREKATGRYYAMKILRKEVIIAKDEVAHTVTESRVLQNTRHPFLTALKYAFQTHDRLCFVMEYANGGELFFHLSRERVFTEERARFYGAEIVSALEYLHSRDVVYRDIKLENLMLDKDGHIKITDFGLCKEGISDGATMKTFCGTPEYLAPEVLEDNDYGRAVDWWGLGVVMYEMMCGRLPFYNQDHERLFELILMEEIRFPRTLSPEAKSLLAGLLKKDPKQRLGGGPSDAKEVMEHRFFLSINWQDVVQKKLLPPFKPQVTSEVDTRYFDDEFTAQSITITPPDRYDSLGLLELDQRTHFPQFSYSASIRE", "test": "single-component ELISA, mono-L as detection agent (FIG. 23A, given there as EC50)"}, "[2]": {"target": "Active Akt2 (with N terminal His6 tag) (human) (UniProt P31751)", "test": "single-component ELISA, bi-L as detection agent (FIG. 23A, given there as EC50)"}, "[3]": {"target": "Active Akt2 (with N terminal His6 tag) (human) (UniProt P31751)", "test": "SPR, Biacore T100, biotinylated N-tL on SA chip, Akt2 protein as analyte, 10° C., 1:1 binding model"}, "[4]": {"target": "Active Akt2 (with N terminal His6 tag) (human) (UniProt P31751)", "test": "summary sentence of Example 1; method not given"}, "[5]": {"target": "Active Akt2 (with N terminal His6 tag) (human) (UniProt P31751)", "test": "single component ELISA, N-tL as surface-localized capture agent (FIG. 23A)"}},
  "note": "Square brackets hold non-standard residues; d marks the D form. Ends that are not written are not given here. S1 = acylated D-Pra whose alkyne is clicked through a 1,2,3-triazole to acylated azidolysine-PEG2-biotin; dPra = C#CC[C@@H](N)C(=O)O",
  "data": [
    {"binder": "S1-[dW][dK][dV][dK][dL]-NH2 (designed binder)", "note": "[mono-L]", "values": [
      {"measurement": "affinity", "setting": "[1]", "value": 3, "unit": "µM"}
    ]},
    {"binder": "B1", "values": [
      {"measurement": "affinity", "setting": "[2]", "value": 1, "unit": "µM"}
    ]},
    {"binder": "B2", "values": [
      {"measurement": "Kd", "setting": "[3]", "value": 25, "unit": "nM"},
      {"measurement": "affinity", "setting": "[4]", "value": 20, "unit": "nM"},
      {"measurement": "EC50", "setting": "[5]", "value": 19, "unit": "nM"}
    ]}
  ]
}
